This note sets out measurements from a protein production outcome set (Wang et al. 2014).

A short description of the data set: label from the status in PepcDB records.
Regarding “MSDSATEYDKLFIGGKWTKPSTSDVIEVRCPATGEYVGKVPMAAAADVDAAVAAARAAFDNGPWPSTPPHERAAVIAAAVKMLAERKDLFTKLLAAETGQPPTIIETMHWMGSMGAMNYFAGAADKVTWTETRTGSYGQSIVSREPVGVVGAIVAWNVPLFLAVNKIAPALLAGCTIVLKPAAETPLTANALAEVFAEVGLPEGVLSVVPGGIETGQALTSNPDIDMFTFTGSSAVGREVGRRAAEMLKPCTLELGGKSAAIILEDVDLAAAIPMMVFSGVMNAGQGCVNQTRILAPRSRYDEIVAAVTNFVTALPVGPPSDPAAQIGPLISEKQRTRVEGYIAKGIEEGARLVCGGGRPEGLDNGFFIQPTVFADVDNKMTIAQEEIFGPVLAIIPYDTEEDAIAIANDSVYGLAGSVWTTDVPKGIKISQQIRTGTYGINWYAFDPGSPFGGYKNSGIGRENGPEGVEHFTQQKSVLLPMGYTVA”, the protein production result is reported as “not failed”.

Consider “MKDLIKVQQKLIPDLIDKMYRRFYILSTISQNQPVGRRSLSEHMDMTERVLRSETDMLKKQELIRVKPTGMEITNEGTEVLAQLGEYFNVYSDDHKLASAIKDKFHIKDVHVIPGDSDSNRTVKREMGQQAGQLLEGILYEDAIVSVTGGSTMACVSESIHLLPFNVFFVPARGGLGENVVYQANTIASSMAQQAGGYYTTLYVPDNVSESTYDTLMLEPSVMHTLDKIKQANITIHGIGDALKMAHRRQSSQNVIDNLQHHQAVGEAFGYYFDAQGQIVHKVKTIGLQLEDLENKDFIFAVAGGQSKGEAIKAYLSIAPENTVLITDEAAAKVILQ”, for which the protein production result is “not failed”.

As to “AIASRAASLRAELTSLANAFEEERISSAERLDADLVRQAVEQAKPENLEQWKQVVHDATAKLQQFWEDSEQALIRETYALATSYLRESDDEVHRLQMTKKALEEQLETERRRSTRIEEQLAALQSRLLDSAAPAATTPADDARTQQEVLRSELQGFMQELVRNQRESLRVLQEELQRVREEASVREENLLRQIAHLKTELAVARTDNEVSSRQLRQLETSAGREEVQDELGPGTIWPPHLTPRRGHRRFQRHNRLEDAPAPPEF”, the protein production result is reported as “failed”.

As for “MILEDLNQLPAAEASHTFMQCSASAWVKKMVTARPFSSELAIKKAADDAWQGLTEQDYFEAFEGHPKIGDVSSLRAKYANTKELAGNEQGLVKEANDDVLEVLSQGNSDYEKKFGFIFIVCATGKSAKQMSDLLQARLPNNKTQELVNAAEEQRKIFQLRIDKALAEGLEHHHHHH”, the protein production entry is recorded as “failed”.

Consider “QYHDHHKDQYQMDAAHVPNKTPLYITDILSLRGKKDSGPARDSIRDSIDRIEFTDFQLHELTGRWLSENMPEGFKSDRFRFLARTITASEEAPVEGSDGEIRIKPNLYILVWEPSFYEELLTRDYFFLFPPEILKQHTLVFQLYSFFRSRMVRRHTDCMLLSELNQKLARNIEWRRFSMDLIRELKRLSDGKGTDDLFVVNLWGYHLTIETMIENDKVMDYQIDIKCDVEEVLRYSRARTTNAGKRNMAPTLPNPLRNEMVTRQQLEALSGIIDGEFEPIQRKTPSPRGNLGRRVKQRKHLVEINADEITITLSKYTSPEALERSITALSAMTGHSYASIKEECSEYIEKLDWLRVGDEPIPYETLSKTVELFNTQNEVKHLTIERLIAGLAVRRKVCRQVFDGHMDEMVFRALDEMAI”, for which the protein production result is on record as “failed”.

Turning to “MAKHEQILVLDPPSDLKFKGPFTDVVTTNLKLQNPSDRKVCFKVKTTAPRRYCVRPNSGIIDPGSIVTVSVMLQPFDYDPNEKSKHKFMVQTIFAPPNISDMEAVWKEAKPDELMDSKLRCVFEMPNENDKLND”, the protein production entry is “not failed”.

Regarding “MSQIFVVFSSDPEILKEIVREIKRQGVRVVLLYSDQDEKRRRERLEEFEKQGVDVRTVEDKEDFRENIREIWERYPQLDVVVIVTTDDKEWIKDFIEEAKERGVEVFVVYNNKDDDRRKEAQQEFRSDGVDVRTVSDKEELIEQVRRFVRKVGSLEHHHHHH”, the protein production entry is on record as “not failed”.

As for “MDKTNLGELINQGKSLLDESVEGFNVGEYHKGAKDGLTVEINKAEEVFNKEDATEEEINLAKESLEGAIARFNSLLIEESTGDFNGNGKIDIGDLAMVSKNIGSTTNTSLDLNKDGSIDEYEISFINHRILNLEHHHHHH”, the protein production result is on record as “not failed”.

Regarding “MVNRFVLEPKTVLEGEQEQKLKDSEAAVASLQTSKEYLEKQVAEVENNLRELLQQEPGIAQQIMSMSM”, the protein production result is given as “failed”.

Take “MKITTKGRYGLTITLELAKRIGDGPISLRSIAQDKNLSEHYLEQLIGPLRNAGIVKSIRGAHGGYVLNGDPEKITAGDIIRTLEGPIVLVESMEDEEAAQRELWTRMRNAVRDVLDQTTLSDLLKHSTDSELTDGYMFYI”: the protein production result is on record as “not failed”.

In the case of “MDYLNYEEIQSLKNSLLHNIKHTYISRYMILTALYTGMRPGEIAVLTWSDIDFKNQTININKSYNHDKGRVDNYDSSEIDKSTKNTNSVRIIKVDKKFLDILSQLKQNDHEKIFIGKDGTIPTSNAVNKVWRKQLEKLNIDKPSFHFHSVRHTHVALLPFKGVPLYAISKRLGHANMSTTAKKYAYMLDELKQQVRLEHHHHHH”, the protein production entry is listed as “not failed”.

Consider “MYMILELLNIIGIIAFTISGSLKGTNKGLDIFGVVTLGVITSYAGGIIADILLGIYPPQILKELNYLLLSVGISIFVFYFYKWLQTNPIKMIIAISDAVGLSTFATLGASLAYSYGLNPISVGLIAAIVGTGGGVIRDVLVNEIPMVLTKEIYATAALLSGFIYYFTTPYLHHDSLFVAFLGSFLLRILSIKYNFNLPKREDNKS”, for which the protein production entry is listed as “failed”.

As for “MLSPCCHGQSMKTKITGKTISRIVPAEKVYRIHDTLQPGLSIRVLPSGHASYMVTWARNKAATLGRVGVITLEQARTDASRYLADAHAIGEPVAITEKRTGAAMPTLDHFLTHTFEPWAAEHHRDAKNGNRAIRHSFEALLSIPLSSIDTKRVEQIRTAWLRAGLAPSTANRNITRLRGVLSRALEWGVLQEHPLKVRKLKVDDRSRVRYLSIEEETALREALEARSNEMRDARDSANKWRLERHKEPLADLRAVRYADHLEPLVVLSINTGVRRGEAFNLTWADVDLKNKLITVEGDTSKSGQTRHVPLNREALDTLTKWKEQRGGNGFVFPGQHGKRLDNVKKSWSGLLKLAKVERFRWHDLRHTFASKLVMAGVPLNTVRELLGHTDIKMTLRYAHLAPGTKAAAVELI”, the protein production result was “failed”.

Take “MDLSLLKALSEADAIASSEQEVRQILLEEAARLQKEVRFDGLGSVLIRLNESTGPKVMICAHMDEVGFMVRSISREGAIDVLPVGNVRMAARQLQPVRITTREECKIPGLLDGDRQGNDVSAMRVDIGARTYDEVMQAGIRPGDRVTFDTTFQVLPHQRVMGKAFDDRLSCYLLVTLLRELHDAELPAEVWLVASSSEEVGLRGGQTATRAVSPDVAIVLDTACWAKNFDYGAANHRQIGNGPMLVLSDKSLIAPPKLTAWIETVAAEIGVPLQADMFSNGGTDGGAVHLTGTGVPTLVMGPATRHGHCAASIADCRDILQMEQLLSALIQRLTRETVVQLTDFR”: the protein production result is “not failed”.

On to “MNVLLGSVVIFATFVTLCNASCYFIPNEGVPGDSTRKCMDLKGNKHPINSEWQTDNCETCTCYETEISCCTLVSTPVGYDKDNCQRIFKKEDCKYIVVEKKDPKKTCSVSEWII”, for which the protein production entry was “not failed”.

On to “MYLTLTIAAMPAYNEAHVIAEVILGCKKYVDNVIVVDDGSSDNTAEVARSAGGYVVKHEVNKGYGAALKSCFKLAREFNADVMIIMDSDGQHNPDEIPRLLEPLKHGADLVIGSRFINGNGKNVPAYRKVGMKILDIATYLAGGILVTDSQSGFRAYGKKAIENVRFDGNNMSAGSEILLYIKDHNLKFTEVEIHCRYDLDQCSSQNPFLHGMEVAFQILKNMGFRRPLYYFTVPGILLIAAGLLIEIAFLHLVGSFGFGVISLIFLMILTGIFMVFTGVILHLVSKMISQIVPGQKGTESLNDGF”, for which the protein production entry was “failed”.

“MKNQFVKCISQLLFLLLIIGVLPVYAQKKSKEKIYRLPDDLETLAGDPALLKKPEGLTVAAYAFPNYHASALHNKIYSQGWTEYNLIRSARPWFEGHQQPRTPLLGELDESKPSTWETYNKLCKQSGIDVLIWDWYWYDGKPCLHEALENGFLEASNTKDVKFACMWTNHPWYVLYPTKRTDGSNAYPPSFDAPDFSKEECWKSLSYMISRYCHLENYWRIDDKPVICIWDARRLESKLGIAGVKQLFAELTDYAKKLGHKGLHFHVTGFSCGNMKEEGYDTVGSYNPMDWIAGRFQPKEIELPDYGTVAADVAFKLWDEHHGQFDIPYVPAVAPGWDSTPRYIAPANRPAKADRSQWPGCTIFKNENPASFKAFVQSSFVYLNKHPEVPRILTIACFNEWSEGHYLLPDNRFGYGMLDALGEALGKEGNHEKHGKLEHHHHHH”: the protein production entry is “not failed”.

On to “MDSVVSDVSDLVEPDEELKAWQTDRTRAPIATKIVVAGGFGAGKTTLVTAVSEITPLQTEALMTQASEDTDDLTGTPDKLTTTVAMDFGRITLDDDLVLYLFGTPGQQRFWFMWDDLVRGAIGAVVLADTRRLSDCFPALDYFESCGLPYVVAVNHFDGSEKFEPEDVREALTVPAHIPVMIMDARRRISVIETLLALVGHALEVSPELEHHHHHH”, for which the protein production result is “not failed”.

With “MVPVVSPGPLVPVADFGPLDRLRGWIVTGLITLLATVTRFLNLGSLTDAGTPIFDEKHYAPQAWQVLNNHGVEDNPGYGLVVHPPVGKQLIAIGEAIFGYNGFGWRFTGALLGVVLVALVVRIVRRISRSTLVGAIAGVLLICDGVSFVTARTALLDGFLTFFVVAAFGALIVDRDQVRERMHIALLAGRSAATVWGPRVGVRWWRFGAGVLLGLACATKWSGVYFVLFFGAMALAFDVAARRQYQVQRPWLGTVRRDVLPSGYALGLIPFAVYLATYAPWFASETAIDRHAVGQAVGRNSVVPLPDAVRSLWHYTAKAFHFHAGLTNSAGNYHPWESKPWTWPMSLRPVLYAIDQQDVAGCGAQSCVKAEMLVGTPAMWWLAVPVLAYAGWRMFVRRDWRYAVVLVGYCAGWLPWFADIDRQMYFFYAATMAPFLVMGISLVLGDILYHPGQGSERRTLGLIVVCCYVALVVTNFAWLYPVLTGLPISQQTWNLEIWLPSWR”, the protein production result is recorded as “failed”.

Regarding “MTKFNWHESAEKKWDSSAEFWNQNSQEMWDSGSRSTIIPFFEQYVKKEAQVLDVGCGDGYGTYKLSRAGYKAVGVDISEVMIQKGKERGEGPDLSFIKGDLSSLPFENEQFEAIMAINSLEWTEEPLRALNEIKRVLKSDGYACIAILGPTAKPRENSYPRLYGKDVVCNTMMPWEFEQLVKEQGFKVVDGIGVYKRGVNEKMLGQLSTELQQSLTFLWVFMLKKHKEMKEFLGGK”, the protein production entry was “failed”.

As to “MGNLKAEYLEQTYIDLAPLKDAEDCRTYLTRSQVDGSLAVRKEICALQYPLYQQLIDFSHPSLARVLETYTKDGRYFVLEEYVSGSTIGSYLKRGYHFQEHEILSFISQLCSALSFLHAHNIIHRDVTPENLLISTDNVLKLIDFGISRSKKEGQSQDTTILGTVGYAAPEQFGFGQTDERTDIYATGVLLNVLLTGSLPKDDLPFDPRYRQIVLKCTSISPADRYSSVSELKSQIMAIKPTRIYQAEIVEPSGKAPRKDSLIRRFFRHVPGFRTGNPGKMIVAIIGYFLMLLFVVVNGTRPLEPGDIRSEYWTINYFFVGVWAAYVNLGNYCGHIEAYDKVGPLTRLLLRTAVALAVFLTTGLLLYFENYCLK”, the protein production result is recorded as “failed”.

For the sequence “MLKRKLILIAYTLLGLSSPVFSADYITENLSTYMRKGAGDQYKISGAVQAGEKVTVLDRKDRFVLIRDSRNREGWVLASEISQTASPKDLIPQLQQQVQDLSSKLGKIDADWQQRTLEMQRRSQQAEQQSSQLLDQNAQLKRELDILKNKNRDLETMHDSAKREIVIQWFIYGGSVLAVGLLLGLIIPFILPRRKRHNGWS”, the protein production entry is given as “failed”.
